Laboratory results reported in the supplement of paper PMC10567573.

B1: TRIM43 (parent)
chain: NNSWIRKNSTMVNSEDIFLLLCLK

Variants of: B1
Assay: protein stability index of a GFP-peptide fusion (GPS, HEK-293T) (PSI 1-6); higher = more stable
Conditions: c terminus: a fixed tail appended
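Also: lentivirally expressed fusions sorted by FACS into six bins by GFP to DsRed ratio, PSI derived from sequencing read proportions per bin multiplied by bin number.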

Protein stability index, by site and new letter:
N8: I 2.73, M 2.46, P 2.28, V 1.94, H 1.79, C 2.24, L 2.61, Y 3.85, A 2.9, W 2.99, E 3.74, T 3.13, D 3.07, K 2.4, S 2.69, G 2.72, Q 2.93, R 3.47
D16: F 2.37, G 2.5, N 4.97, K 3.16, R 2.8, T 2.47, M 2.45, H 1.71, A 1.59, L 2.59, C 3.95, E 3.13, Y 2.65, Q 2.49, P 2.23, W 3.2, I 2.17, S 1.7, V 2.92
L19: N 1.83, K 1.54, R 1.7, V 3.1, F 2.07, M 2.08, C 2.32, G 1.8, S 1.63, Y 3.02, W 2.33, I 2.63, A 2.25, D 2.01, H 1.7, P 1.95, T 1.69, E 1.79, Q 2.21
L21: V 3.54, I 3.08, Q 2.44, A 2.13, P 2.37, S 2.65, K 2.58, H 2.39, N 1.58, W 2.91, F 1.95, Y 2.9, G 1.83, M 3.25, C 3.87, R 1.94, T 2.96, D 1.92, E 3.8
I5: Y 2.56, W 4.27, P 3.31, T 3.2, S 3.64, V 2.27, N 3.07, R 2.13, Q 3.02
V12: G 2.21, N 3.36, F 2.89, E 2.92, A 2.57, L 3.58, M 3.38, K 2.75, I 2.53, T 4.1, S 4.3, Y 3.38, H 1.81, D 1.97, C 1.62, P 2.79, W 2.41, R 4.39
C22: T 2.19, D 1.94, R 1.91, P 2.44, I 2.66, E 2.33, L 3.17, A 1.91, Y 3.36, V 2.96, N 2.32, W 2.66, Q 2.06, H 2.62, S 2.72, M 2.61, G 2.32, K 2.13
T10: Y 3.22, E 2.91, F 3.41, R 2.52, N 2.17, W 4.55, K 3.25, V 1.95, H 3.31, Q 3.06, I 4.37, M 2.48, G 2.9, D 1.98, S 3.33, L 2.55, P 2.82, C 2.73
M11: Y 2.99, C 2.06, K 2.38, H 2.44, I 1.89, R 2.69, G 3.08, W 2.44, L 3.95, S 2.27, F 2.54, T 3.06, D 2.95, Q 3.54, E 1.74, V 2.69, P 2.15, N 1.86, A 2.1
S9: C 2.28, A 2.99, F 2.03, V 2.19, E 2.68, W 4.39, R 2.62, T 2.62, P 3.63, L 3.2, K 2.54, M 2.34, Q 2.69, D 3.01, G 2.66, N 2.49, Y 3.67, I 3.83, H 2.91
I17: N 1.85, A 2.04, H 2.5, G 2.04, S 2.6, P 1.93, D 1.93, E 3.62, Y 2.83, R 2.7, F 2.21, C 3.18, M 2.26, T 2.42, K 2.62, W 2.16, V 2.24, L 3.15, Q 3.35
S14: R 2.77, L 2.31, D 2.77, Q 3.26, Y 2.89, K 2.36, P 2.1, M 2.13, F 2.64, E 2.08, V 3.6, C 2.79, H 2.12, T 2.17, N 2.82, A 3.2, I 2.62
N13: H 3, G 3.19, Q 3.14, C 3.44, E 2.47, M 3.59, S 2.96, W 3.07, P 2.87, V 2.72, A 3.6, T 1.95, F 2.69, K 3.69, R 2.39, L 2.44, I 2.37, Y 2.33, D 3.31
L23: F 3.62, A 2.83, N 1.66, K 1.54, H 2.61, D 1.95, C 1.84, G 1.44, Q 2.38, E 1.93, P 2.15
L20: A 2.14, T 2.72, R 1.72, H 2.5, F 2.92, G 1.48, W 3.12, P 2.46, Q 3.05, S 2.28, Y 2.75, E 1.75, C 2.25, I 2.64, V 2.57, M 3.31, N 3, D 2.27, K 2.36
F18: E 1.47, P 1.85, M 4.64, L 2.54, N 1.54, I 3.7, C 2.71, H 2.42, K 2.23, T 1.83, Y 4.65, D 2.42, W 2.46, R 2.63, G 1.51, A 1.7, Q 2.5, S 1.64, V 2.92
E15: V 3.11, C 2.74, W 2.01, G 2.29, M 2.26, I 2.72, N 2.88, Q 4.22, T 1.65, L 2.44, P 1.87, Y 3.03, F 2.69, S 2.47, K 2.89, H 2.77, R 1.25, A 3.44
K7: N 2.32, H 2.76, R 4.2, W 2.95, V 2.61, P 3.02, C 2.73, M 2.73, S 2.95, D 2.54, F 2.97, G 3.14, L 2.55, I 2.71, A 4.36, Y 2.9, T 2.16, Q 2.47, E 2.84
R6: V 2.73, F 3.74, K 3.09, A 2.27, E 1.89, C 3.31, S 2.97, D 3.82, L 2.03, G 2.76, Y 3.78, P 2.75, M 2.76, H 3.75, I 2.66, N 3.63, W 3.13
